Results: article PMC12218379 (Scientific Reports, 2025)

Biological target: the molecule itself
Assay: SEC-MALS

B1: SsRidA (SSA_0809), reactive intermediate deaminase A homolog from Streptococcus sanguinis (enzyme, UniProt A3CM35 1-126, looked up)
chain: MAKTIHTDKAPAAIGPYVQGKIVGNLLFASGQIPLSPETGEIIGTTIEEQTQQVLKNVSAILEAAGTDFDHVVKATCFLSDINDFVAFNEVYKTAFTEAFPARSAVEVARLPKDVKIEIEVIAEIL
stoichiometry N: 3
